B1: MS-Pro-24-dHLX-MH (other, not shown: a dimerising Fc or GST; small tags and cut ends)
VH: QVQLVQSGAEVKKPGSSVKVSCKASGGTFSSYAISWVRQAPGQGLEWMGGIIPIFGTANYAQKFQGRVTITADESTSTAYMELSSLRSEDTAVYYCARVNHWTYTFDYWGQGTLVTVSS
VL: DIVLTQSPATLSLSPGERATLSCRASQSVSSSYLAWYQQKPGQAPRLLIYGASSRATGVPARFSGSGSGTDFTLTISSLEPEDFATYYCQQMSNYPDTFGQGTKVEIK
modifications: Dimeric Fab mini-antibody: Fab fused to the dHLX helix and the MH tag. These parts are not in the letters.
notes: Fab mini-antibody format Fab-dHLX-MH (dimer of the Fab); copies: 2 + 2
B2: MS-Pro-26-dHLX-MH (other, not shown: a dimerising Fc or GST; small tags and cut ends)
VH: QVQLVQSGAEVKKPGASVKVSCKASGYTFTSYYMHWVRQAPGQGLEWMGWINPNSGGTNYAQKFQGRVTMTRDTSISTAYMELSSLRSEDTAVYYCARGYWYAYFTYINYGYFDNWGQGTLVTVSS
VL: DIALTQPASVSGSPGQSITISCTGTSSDVGGYNYVSWYQQHPGKAPKLMIYDVSNRPSGVSNRFSGSKSGNTASLTISGLQAEDEADYYCQSYDNNSDVVFGGGTKLTVL
modifications: Dimeric Fab mini-antibody: Fab fused to the dHLX helix and the MH tag. These parts are not in the letters.
notes: Fab mini-antibody format Fab-dHLX-MH (dimer of the Fab); also called MSPRO26 Fab-dHLX; MSPRO26 dimeric dHLX format; copies: 2 + 2

Columns and labels:
FR3exFc = biological target: T1, FR3exFc (human); assay: BIAcore, mini-antibody format
T1 construct: Said to be entirely in dimeric form; also called FR3/Fc; FGFR3/Fc

FGFR3 wild type on cells = FGFR3 wild type on cells (human, UniProt P22607 23-806); assay: cell-based or functional assay
Sequence of FGFR3 wild type on cells (P22607 23-806 limits assumed): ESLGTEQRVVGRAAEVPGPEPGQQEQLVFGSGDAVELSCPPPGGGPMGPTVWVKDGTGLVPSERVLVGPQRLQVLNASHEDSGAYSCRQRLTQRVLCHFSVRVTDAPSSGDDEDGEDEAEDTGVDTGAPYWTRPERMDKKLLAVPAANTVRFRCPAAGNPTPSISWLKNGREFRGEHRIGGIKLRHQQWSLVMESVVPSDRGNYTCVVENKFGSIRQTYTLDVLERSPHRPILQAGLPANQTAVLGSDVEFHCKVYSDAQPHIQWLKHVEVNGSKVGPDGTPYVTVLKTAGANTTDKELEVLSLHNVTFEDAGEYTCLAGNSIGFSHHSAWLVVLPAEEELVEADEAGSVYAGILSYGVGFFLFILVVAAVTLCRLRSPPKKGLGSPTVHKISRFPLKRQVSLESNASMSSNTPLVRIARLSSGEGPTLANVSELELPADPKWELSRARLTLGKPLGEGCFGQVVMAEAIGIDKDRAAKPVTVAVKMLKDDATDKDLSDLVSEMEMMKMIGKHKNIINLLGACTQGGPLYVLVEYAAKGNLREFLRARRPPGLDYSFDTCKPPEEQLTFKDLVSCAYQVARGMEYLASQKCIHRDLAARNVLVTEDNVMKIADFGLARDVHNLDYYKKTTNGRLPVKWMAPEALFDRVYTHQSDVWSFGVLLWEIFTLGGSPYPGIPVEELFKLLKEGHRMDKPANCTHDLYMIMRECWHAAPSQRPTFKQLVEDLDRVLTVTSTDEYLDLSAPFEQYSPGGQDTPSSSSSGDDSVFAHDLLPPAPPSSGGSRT

T1 sequence (chain, as listed by the source limits assumed): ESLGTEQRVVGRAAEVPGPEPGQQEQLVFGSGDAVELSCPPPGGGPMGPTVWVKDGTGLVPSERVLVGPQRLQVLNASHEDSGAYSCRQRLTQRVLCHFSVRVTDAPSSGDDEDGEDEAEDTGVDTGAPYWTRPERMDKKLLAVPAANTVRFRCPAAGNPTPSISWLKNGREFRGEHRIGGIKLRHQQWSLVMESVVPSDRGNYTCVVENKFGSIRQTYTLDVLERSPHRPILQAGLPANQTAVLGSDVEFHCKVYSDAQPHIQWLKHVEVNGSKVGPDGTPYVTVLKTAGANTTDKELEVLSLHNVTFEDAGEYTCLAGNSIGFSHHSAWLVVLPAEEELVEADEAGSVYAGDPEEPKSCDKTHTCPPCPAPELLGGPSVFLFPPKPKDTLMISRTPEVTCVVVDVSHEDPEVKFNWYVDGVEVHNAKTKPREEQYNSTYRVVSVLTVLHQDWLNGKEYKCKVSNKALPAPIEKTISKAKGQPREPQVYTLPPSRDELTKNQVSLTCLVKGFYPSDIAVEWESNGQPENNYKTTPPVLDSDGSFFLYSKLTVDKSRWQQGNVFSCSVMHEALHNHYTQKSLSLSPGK

Row | Binder | Kd (FR3exFc) [nM] | IC50, FDCP-FGFR3 proliferation assay with FGF9 (FGFR3 wild type on cells) [nM]
1 | B1 | 2 | –
2 | B2 | 2 | 8
